Laboratory results published in patent publication US8691772B2, “HSP60, HSP60 peptides and T cell vaccines for immunomodulation” (Yeda Research and Development Co. Ltd., priority 2005, dated 2014).

Tests used:
[1] = tested on: AKT, Pyk-2, p38, ERK, NF-κB, T-bet; assay: Western blot analysis of CD4+CD25+ / CD4+CD25- T-cell lysates; format: cell-based, human
From the text: CFSE labeling of CD4^+CD25^− T cells. CD4^+CD25^− T cells were labeled with Vybrant™ CFDA SE Cell Tracer Kit (Molecular Probes; Eugene, Oreg.) according to the manufacturer's instructions. Labeled CD4^+CD25^− T cells were co-cultured with CD4^+CD25^+ T cells on anti-CD3 mAb, as described above, for 6 hr. After co-culture, CD4^+CD25^− T cells were isolated by sorting using a Becton Dickinson FACSVantage (Mountain View, Calif.).
Western blot analysis of T-cell lysates. Indicated populations of T cells (5×10^6) were preincubated with 1 ng/ml of HSP60 for 10 min (37° C. in a 7% CO2, humidified atmosphere). […] Total cell lysates, nuclear and cytoplasmic extracts were prepared as previously described (Zanin-Zhorov et al., 2003, section D of the Examples herein), analyzed for protein content. Sample buffer was then added and, after boiling, the samples, containing equal amounts of proteins, were separated on 10% SDS-PAGE gel and transferred to nitrocellulose membranes. The membranes were blocked and probed with the following mAb in the same buffer: anti-phosphorylated (p) ERK. […]

CD4^+CD25^+ T cells = assay: Co-culture of treated CD4+CD25+ T cells with CD4+CD25- T cells; format: cell-based, human
T-bet and GATA-3 = T-bet and GATA-3 expression in oxazolone-reactive mouse T cells; format: cell-based; settings: 1 ng/ml for 2 hr
Protocol: Western blot analysis of T-cell nuclear extracts. Purified T cells (5×10^6) were preincubated with different concentrations of HSP60 for the indicated periods of time (37° C. in a 7% CO2, humidified atmosphere). […] T cells were lysed in 10 mM HEPES, 1.5 mM MgCl2, 1 mM dithiothreitol (DTT), 1 mM PMSF, 0.5% Nonidet P-40. The lysates were incubated on ice for 10 min and centrifuged at 2000 rpm for 10 min at 4° C. The supernatants (cytoplasmic extracts) were transferred and the pellet (nuclei) was suspended in buffer containing 30 mM HEPES, 450 mM NaCl, 25% Glycerol, 0.5 mM EDTA, 6 mM DTT, 12 mM MgCl2 1 mM PMSF, 10 μg/ml leupeptin, 10 μg/ml pepstatin, 1% phosphatase inhibitor cocktail, and the suspension was incubated on ice for 30 min. The lysates were cleared by centrifugation (30 min, 14×10^3 rpm, 4° C.), and the resulting supernatants analyzed for protein content. For NFATp analysis nuclear extracts were prepared with a NE-PER Nuclear and Cytoplasmic Extraction reagent (Pierce, Rockford, Ill.) according to the manufacturer's protocol. Sample buffer was then added and, after boiling, the samples, containing equal amounts of proteins, were separated on 10% SDS-PAGE gel and transferred to nitrocellulose membranes. […]

CD8^+ T cells = assay: Co-culture of treated CD4+CD25+ T cells with CD8+ T cells; format: cell-based, human; settings: 1% or more HSP60-treated CD4+CD25+ T cells; anti-CD3 24 hr
[2] = CD4+CD25+ treated 1 ng/ml 2 hr, co-cultured with CD4+CD25- on anti-CD3, 24 hr

B1: HSP60: recombinant human heat shock protein 60 (StressGen Biotechnologies) (protein)
chain: AKDVKFGADARALMLQGVDLLADAVAVTMGPKGRTVIIEQSWGSPKVTKDGVTVAKSIDLKDKYKNIGAKLVQDVANNTNEEAGDGTTTATVLARSIAKEGFEKISKGANPVEIRRGVMLAVDAVIAELKKQSKPVTTPEEIAQVATISANGDKEIGNIISDAMKKVGRKGVITVKDGKTLNDELEIIEGMKFDRGYISPYFINTSKGQKCEFQDAYVLLSEKKISSIQSIVPALEIANAHRKPLVIIAEDVDGEALSTLVLNRLKVGLQVVAVKAPGFGDNRKNQLKDMAIATGGAVFGEEGLTLNLEDVQPHDLGKVGEVIVTKDDAMLLKGKGDKAQIEKRIQEIIEQLDVTTSEYEKEKLNERLAKLSDGVAVLKVGGTSDVEVNEKKDRVTDALNATRAAVEEGIVLGGGCALLRCIPALDSLTPANEDQKIGIEIIKRTLKIPAMTIAKNAGVEGSLIVEKIMQSSSEVGYDAMAGDFVNMVEKGIIDPTKVVRTALLDAAGVASLLTTAEVVVTEIPKEEKDPGMGAMGGMGGGMGGGMF
phosphorylation of AKT, Pyk-2, and p38 ([1]; CD4+CD25+ T cells, 1 ng/ml, 10 min): induced phosphorylation of AKT, Pyk-2, and p38
ERK phosphorylation, NF-κB nuclear translocation and T-bet expression in CD4+CD25- T cells ([1]; co-culture with HSP60-treated CD4+CD25+ (1:9), anti-CD3, 6 hr): down-regulation of ERK phosphorylation, inhibition of nuclear translocation of NF-κB and T-bet expression
anti-CD3-induced proliferation of CD4+CD25- T cells in co-culture (CD4^+CD25^+ T cells; 24 hours): did not suppress anti-CD3-induced proliferation
anti-CD3-induced proliferation of CD4+CD25- T cells in co-culture (CD4^+CD25^+ T cells; 96 hours): significant inhibition of proliferation
IFN-γ and TNF-α secretion in co-culture (CD4^+CD25^+ T cells; [2]): significantly enhanced the down-regulation of secretion of IFN-γ and TNF-α secretion
IL-10 and TGF-β secretion in co-culture (CD4^+CD25^+ T cells; [2]): up-regulated the secretion of IL-10 and TGF-β in the co-cultures
inhibition of IFN-γ and TNF-α secretion of CD4+CD25- T cells by supernatants of treated Tregs (CD4^+CD25^+ T cells; HSP60 1 ng/ml, 2 hr, supernatants after 24 hr on anti-CD3): about 30%
GATA-3 expression (T-bet and GATA-3): up-regulation of GATA-3 expression
T-bet expression (T-bet and GATA-3): down-regulation of T-bet
inhibition of IFN-γ or TNF-α secretion in co-culture with CD8+ T cells (CD8^+ T cells): 3-4 fold
